In publication PMC8307315:

Tests used:
Experiment in all cases: SPR; Biacore 2000, CM4 chip; PSA amine-coupled, antibody or conjugate bound to it; 10 min into the dissociation phase 40 nM FcRn in 10 mM maleic acid (pH 6.0) flown over for 3 min; number of FcRn bound per antibody from the RUs at the end of the FcRn injection
[1] = target: hu5A10-DTPA, 3:1 chelator-to-antibody molar ratio
[2] = target: humanized 5A10 (hu5A10), unconjugated
[3] = target: hu5A10-DOTA, 12:1 chelator-to-antibody molar ratio
[4] = target: hu5A10-DOTA, 6:1 chelator-to-antibody molar ratio
[5] = target: hu5A10-DTPA, 6:1 chelator-to-antibody molar ratio
[6] = target: hu5A10-DOTA, 3:1 chelator-to-antibody molar ratio
[7] = target: hu5A10-DTPA, 12:1 chelator-to-antibody molar ratio

FcRn bound per antibody (FcRn per antibody) [1]: 1.9 | FcRn bound per antibody (FcRn per antibody) [2]: 1.8 | FcRn bound per antibody (FcRn per antibody) [3]: 0.1 | FcRn bound per antibody (FcRn per antibody) [4]: 0.5 | FcRn bound per antibody (FcRn per antibody) [5]: 1.9 | FcRn bound per antibody (FcRn per antibody) [6]: 0.8 | FcRn bound per antibody (FcRn per antibody) [7]: 1.7
Substance: neonatal fc-receptor (FcRn) (from UniProt P55899 24-297)
